Results reported in publication PMC9765406.

Experiments:
[1] = target: BfpD, type IV pilus (bundle-forming pilus) extension ATPase from enteropathogenic Escherichia coli (enteropathogenic Escherichia coli (EPEC)); assay: cryo-EM structure
[2] = target: BfpD, type IV pilus (bundle-forming pilus) extension ATPase from enteropathogenic Escherichia coli (enteropathogenic Escherichia coli (EPEC)); assay: negative-stain electron microscopy with reference-free 2D averaging

Substance: BfpD, type IV pilus (bundle-forming pilus) extension ATPase from enteropathogenic Escherichia coli (enzyme)
- stoichiometry N [1]: 6
- stoichiometry N [2]: 6
